This is an account of results in patent publication US10858688 (KYOTO UNIVERSITY, dated 2020).

Where no end group is shown, it is not given here. Atto 488 = fluorescent body linked to the N terminus

In the assay the target is T1, actin filament in fixed Xenopus laevis XTC cells (Xenopus laevis).
T1 construct: whole, on cells; Polymer of actin in fixed cells
In words: speckle lifetime distribution in fixed XTC cells, 10 ms/frame at 100 Hz, single exponential fit (FIG. 9a).

B1: Lifeact peptide (sequence number 19) with an Atto 488 fluorescent body linked to an N terminus (peptide)
peptide: {Atto 488}-MGVADLIKKFESISKEE
notes: Purchased from Sigma-Aldrich; also called Atto488-Lifeact; Atto 488-Lifeact
B1 showed a half-life of 0.023 s.

For orientation: half-life means the time needed for the level to fall by half in the phase considered. A low value points to fast loss.
